According to the Human Domainome abundance scans (Beltran et al. 2025):
± gives the uncertainty stated by the source.

B1: Zinc finger protein ZIC 2, residues 250 to 295; numbered along this chain, O95409 (parent)
chain: QCIKQELICKWIDPEQLSNPKKSCNKTFSTMHELVTHVSVEHVGGP

Variants of: B1
Assay: abundance fitness (aPCA) (normalised: wild type 0, dead -1); higher = more abundant; growth selection in yeast, the domain comes from the species named
Conditions: Homo sapiens

| Variant | abundance fitness |
| --- | --- |
| QCIKQELICKWIDPEQLWNPKKSCNKTFSTMHELVTHVSVEHVGGP [S18W] | -0.265 ± 0.096 |
| QCIKQELICKWIDPEQLINPKKSCNKTFSTMHELVTHVSVEHVGGP [S18I] | -0.409 ± 0.12 |
| QCIKQELICKWIDPEQLMNPKKSCNKTFSTMHELVTHVSVEHVGGP [S18M] | -0.348 ± 0.099 |
| QCIKQELICKWIDPEQLSNPKKSCNKTFSTMHELVTHVSVEHVGYP [G45Y] | -0.648 ± 0.13 |
| QCIKQELICKWIDPEQLSNPKKSCNKTFSTMHELVTHVSVEHVGAP [G45A] | 0.035 ± 0.091 |
| QCIKQELICKWIDPEQLSNPKKSCNKTFSTMHELVTHVSVEHVGTP [G45T] | -0.093 ± 0.11 |
| TCIKQELICKWIDPEQLSNPKKSCNKTFSTMHELVTHVSVEHVGGP [Q1T] | 0.146 ± 0.35 |
| ECIKQELICKWIDPEQLSNPKKSCNKTFSTMHELVTHVSVEHVGGP [Q1E] | -0.077 ± 0.16 |
| YCIKQELICKWIDPEQLSNPKKSCNKTFSTMHELVTHVSVEHVGGP [Q1Y] | -0.705 ± 0.25 |
| QCIEQELICKWIDPEQLSNPKKSCNKTFSTMHELVTHVSVEHVGGP [K4E] | 0.088 ± 0.099 |
| QCIKQELICKWIDPEQLSNPKKSCNKTFSTMHELVTHVMVEHVGGP [S39M] | -0.274 ± 0.11 |
| QCIKQELICKWIDPEQLSNPKKSCNKTFSTMHELVTHVCVEHVGGP [S39C] | -0.016 ± 0.11 |
| QCIKQELICKWIDPEQLSNPKKSCNKTFSTMHELVTHVPVEHVGGP [S39P] | -0.666 ± 0.12 |
| QCIKQELICKWIDPEQLSNPKKSCNKTFSTMHELVTHVLVEHVGGP [S39L] | -0.356 ± 0.091 |
| QCIKQELICKWIDPEQLSNPCKSCNKTFSTMHELVTHVSVEHVGGP [K21C] | -0.673 ± 0.1 |
| QCIKQELICKWIDPEQLSNPYKSCNKTFSTMHELVTHVSVEHVGGP [K21Y] | -0.095 ± 0.11 |
| QCIKQELICKWIDPEQLSNPKKSCNKTFSTQHELVTHVSVEHVGGP [M31Q] | 0.438 ± 0.095 |
| QCIKQELICKWIDPEQLSNPKKSCNKTFSTLHELVTHVSVEHVGGP [M31L] | -0.377 ± 0.088 |
| QCIKQELICKWIDPEQLSNPKKSCNKTFSTHHELVTHVSVEHVGGP [M31H] | 0.436 ± 0.13 |

| Variant | abundance fitness |
| --- | --- |
| QCIKQELICKWIDPEQLSNPKKSCNKTFSTNHELVTHVSVEHVGGP [M31N] | 0.622 ± 0.11 |
| QCIKQELICKWIDPEQLSNPKKSCNKTFSTPHELVTHVSVEHVGGP [M31P] | -0.079 ± 0.098 |
| QCIKQELICKWIDPEQLSNPKKSCNKTFSTMHELVTHYSVEHVGGP [V38Y] | 0.066 ± 0.12 |
| QCIKQELICKWIDPEQLSNPKKSCNKTFSTMHELVTHHSVEHVGGP [V38H] | -0.121 ± 0.11 |
| QCIKQELICKWIDPEQLSNPKKSCNKTFSTMHELVTHSSVEHVGGP [V38S] | 0.202 ± 0.088 |
| QCIKQELICKWIDPEQLSNPKKSCNKTFSTMHELVTHISVEHVGGP [V38I] | -0.021 ± 0.1 |
| QCIKQELICKWIDPEQLSNPKKSCNKTFSTMHELVTHKSVEHVGGP [V38K] | 0.623 ± 0.097 |
| QCIKQELICKWIDPEQLSNPKKSCNKTFSTMRELVTHVSVEHVGGP [H32R] | 0.084 ± 0.086 |
| QCIKQELICKWIDPEQLSNPKKSCNKTFSTMSELVTHVSVEHVGGP [H32S] | 0.011 ± 0.089 |
| QCIKQELICKWIDPEQLSMPKKSCNKTFSTMHELVTHVSVEHVGGP [N19M] | -0.067 ± 0.099 |
| QCIKQELICKWIDPEQLSYPKKSCNKTFSTMHELVTHVSVEHVGGP [N19Y] | -0.451 ± 0.13 |
| QCIKQELICKWDDPEQLSNPKKSCNKTFSTMHELVTHVSVEHVGGP [I12D] | -0.064 ± 0.12 |
| QCIKQELICKWIDPEQLSNPKKSCNKTFSTMHELVTHVSVEHVVGP [G44V] | -0.273 ± 0.088 |
| QCIKQELICKWIDPEQLSNPKKSCNKTFSTMHELVTHVSVEHVNGP [G44N] | -0.019 ± 0.11 |
| QCIKQELICKWIDPEQLSNPKKSCNKTFSTMHELVTHVSVEHVEGP [G44E] | -0.2 ± 0.099 |
| QCIKQELICKWIDPEQLSNPKKSCNKTFSTMHELVTHVSVEHVAGP [G44A] | -0.006 ± 0.087 |
| QCTKQELICKWIDPEQLSNPKKSCNKTFSTMHELVTHVSVEHVGGP [I3T] | 0.052 ± 0.1 |
| QCEKQELICKWIDPEQLSNPKKSCNKTFSTMHELVTHVSVEHVGGP [I3E] | -0.352 ± 0.1 |
| QCIKQELICKPIDPEQLSNPKKSCNKTFSTMHELVTHVSVEHVGGP [W11P] | -0.348 ± 0.1 |

| Variant | abundance fitness |
| --- | --- |
| QCIKQELICKCIDPEQLSNPKKSCNKTFSTMHELVTHVSVEHVGGP [W11C] | -0.712 ± 0.1 |
| QCIKQELICKEIDPEQLSNPKKSCNKTFSTMHELVTHVSVEHVGGP [W11E] | 0.117 ± 0.11 |
| QCIKQELICKWIDPEWLSNPKKSCNKTFSTMHELVTHVSVEHVGGP [Q16W] | -0.069 ± 0.097 |
| QCIKQELICKWIDPEILSNPKKSCNKTFSTMHELVTHVSVEHVGGP [Q16I] | -0.11 ± 0.1 |
| QCIKQELICKWIDPEQLSNPKKSCNKTFSCMHELVTHVSVEHVGGP [T30C] | -0.999 ± 0.16 |
| QCIKQELICKWIDPEQLSNPKKSCNKTFSRMHELVTHVSVEHVGGP [T30R] | -0.418 ± 0.094 |
| QCIKQELICKWIDPEQLSNPKKSCNKTFSIMHELVTHVSVEHVGGP [T30I] | -0.315 ± 0.16 |
| QCIKQELICKWIDPEQLSNPKKSCNKTFSDMHELVTHVSVEHVGGP [T30D] | -0.072 ± 0.12 |
| QCIKQELICKWIDPEQLSNPKKSCNKTFSKMHELVTHVSVEHVGGP [T30K] | -0.389 ± 0.13 |
| QCIKQELICKWIDPEQLSNPKYSCNKTFSTMHELVTHVSVEHVGGP [K22Y] | -0.376 ± 0.15 |
| QCIKQELICKWIDPEQLSNPKFSCNKTFSTMHELVTHVSVEHVGGP [K22F] | -0.332 ± 0.11 |
| QCIKQELICKWIDPEQLSNPKKSCNKTFMTMHELVTHVSVEHVGGP [S29M] | -0.077 ± 0.11 |
| QCIKQELICKWIDPEQLSNPKKSCNKTFNTMHELVTHVSVEHVGGP [S29N] | -0.213 ± 0.13 |
| QCIKQELICKWIDPEQLSNPKKSCNKTFDTMHELVTHVSVEHVGGP [S29D] | 0.352 ± 0.1 |
| QCIKQELICKWIDPEQLSNPKKSCWKTFSTMHELVTHVSVEHVGGP [N25W] | -0.453 ± 0.099 |
| QCIKQELICKWIDPEQLSNPKKSCQKTFSTMHELVTHVSVEHVGGP [N25Q] | 0.17 ± 0.11 |
| QCIKQELICKWIDPEQLSNPKKSCNKTSSTMHELVTHVSVEHVGGP [F28S] | -0.887 ± 0.097 |
| QCIKQELICKWIDPEQLSNPKKSCNKTASTMHELVTHVSVEHVGGP [F28A] | -0.811 ± 0.1 |
